Drawing on PMC9496550, this text covers reduction of the BiFC signal against flKMO-19Q for 1 substance.

The experiment concerns the target full length human kynurenine 3-monooxygenase fused to the C-terminal fragment of CFP (flKMO-CC) (human) (UniProt O15229). Nature of the experiment: split reporter (BiFC, NanoBiT); BiFC in live HEK293T cells 48 h after co-transfection, 37 °C, 5% CO2; CC + VN (KMO with HTT) or VN + VC (HTT with HTT) complementation; ScanR screening station (mean green intensity normalised by co-transfected RFP) or confocal microscopy.
Sequence of UniProt O15229 (O15229 whole entry, the tested form may be a part): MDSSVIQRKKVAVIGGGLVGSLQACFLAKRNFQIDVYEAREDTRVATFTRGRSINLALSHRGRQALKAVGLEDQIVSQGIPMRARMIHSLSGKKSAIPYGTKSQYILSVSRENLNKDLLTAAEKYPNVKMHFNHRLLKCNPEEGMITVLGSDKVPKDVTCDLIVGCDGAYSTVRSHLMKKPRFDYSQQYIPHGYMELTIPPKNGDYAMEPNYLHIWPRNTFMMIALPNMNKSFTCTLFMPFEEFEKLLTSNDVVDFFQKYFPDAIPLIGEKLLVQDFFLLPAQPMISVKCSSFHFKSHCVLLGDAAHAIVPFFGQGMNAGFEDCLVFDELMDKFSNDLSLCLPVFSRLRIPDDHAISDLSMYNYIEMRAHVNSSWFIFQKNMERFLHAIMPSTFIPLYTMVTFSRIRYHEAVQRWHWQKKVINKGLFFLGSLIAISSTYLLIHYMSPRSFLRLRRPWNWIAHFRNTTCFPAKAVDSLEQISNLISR

In the case of “HTT exon 1 fragment with 97 glutamines fused to the N-terminal half of Venus (HTT97Q-VN) (domain or fragment)”, the reduction of the BiFC signal against flKMO-19Q amounted to 50%.
